Measured values published in patent publication US7425449.

Experiments:
[1] = target: T1, U153 integrase (Listeria phage U153) (UniProt Q8LTD8); assay: cell_activity
T1 sequence: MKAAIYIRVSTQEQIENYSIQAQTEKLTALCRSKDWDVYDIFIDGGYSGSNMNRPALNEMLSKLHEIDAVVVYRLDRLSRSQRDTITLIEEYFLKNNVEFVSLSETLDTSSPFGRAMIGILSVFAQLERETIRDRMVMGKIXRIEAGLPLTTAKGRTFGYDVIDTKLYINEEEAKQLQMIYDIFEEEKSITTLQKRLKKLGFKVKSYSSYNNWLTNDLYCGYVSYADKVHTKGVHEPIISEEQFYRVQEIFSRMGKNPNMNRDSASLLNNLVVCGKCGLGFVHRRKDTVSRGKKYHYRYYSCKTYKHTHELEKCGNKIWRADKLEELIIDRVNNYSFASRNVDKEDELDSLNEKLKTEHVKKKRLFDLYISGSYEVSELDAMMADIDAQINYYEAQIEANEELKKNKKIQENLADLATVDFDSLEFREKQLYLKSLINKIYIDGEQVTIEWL

[2] = target: T2, PSA integrase (Listeria phage PSA) (UniProt Q8W5Y3); assay: cell_activity; conditions: pPL2 in 10403S and EGDe; attB' side unrelated to 4b, attB side 96-97% identical
T2 sequence: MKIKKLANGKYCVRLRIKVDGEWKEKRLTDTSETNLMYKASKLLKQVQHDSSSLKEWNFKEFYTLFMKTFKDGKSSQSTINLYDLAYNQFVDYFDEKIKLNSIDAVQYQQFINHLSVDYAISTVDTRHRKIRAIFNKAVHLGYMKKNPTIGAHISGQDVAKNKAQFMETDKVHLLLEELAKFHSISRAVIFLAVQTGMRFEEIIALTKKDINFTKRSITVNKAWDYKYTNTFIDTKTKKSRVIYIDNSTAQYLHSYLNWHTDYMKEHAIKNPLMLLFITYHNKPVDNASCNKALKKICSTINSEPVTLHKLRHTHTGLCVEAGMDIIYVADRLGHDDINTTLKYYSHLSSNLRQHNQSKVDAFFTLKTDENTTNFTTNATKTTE

Substance: comK-attBB'
- activity (integrants per donor cell) ([1]; pPL1 integration at comK in DP-L4056, similar frequency in SLCC-5764 and 4b strains, PCR confirmed): 0.0002

Substance: U153 attPP'
- activity (integrants per donor cell) ([1]; attPP' partner on pPL1, stable for 100 generations): 0.0002

Substance: tRNAArg-attBB' serotype 1/2 (10403S, EGDe)
- activity (integrants per donor cell) [2]: 0.0002
